Experimental data as given in patent US12715905B2, “Methods of characterizing and purifying VEGF receptor fusion protein” (Regeneron Pharmaceuticals, Inc., priority 2023, dated 2026).
Where a SMILES comes first, the peptide text is derived from it. [ ]: non-standard residue; d: D form. The star is where a group is joined. Sta = CC(C)C[C@H](N)[C@@H](O)CC(=O)O; Isovaleryl = CC(C)CC(=O)*

Experiments:
cathepsin D [1] = assay: Protease inhibitor confirmation study: pepstatin A added to DSI samples, NR-1 band and Y/L clipping; type: biochemical, Chinese hamster; settings: DSI samples from both facilities, pepstatin A added at 37° C., assessed at day 3 and day 5
Method: Once cathepsin D was identified to be a potential reason for the cleavage of aflibercept, a cathepsin D inhibitor was used to confirm the finding. AEBSF and Aprotinin bovine lung (serine protease inhibitors), E64 and Leupeptin hemisulfate (cysteine protease inhibitors) and pepstatin A (an aspartic protease inhibitor) were evaluated for their ability to inhibit activity of cathepsin D.
To the samples from lots from both the facilities containing DSI at t=0, pepstatin A was added at 37° C. and % of NR-1 band formed was assessed at day 3 and day 5.

cathepsin D [2] = assay: Stability observation in presence and absence of inhibitor pepstatin A (SE-UPLC HMW, CE-SDS NR1); type: physicochemical, Chinese hamster
Method: Formulated Drug Substance with high (pre-optimization) and low (post-optimization) cathepsin D were blended to achieve various levels of cathD (FIG. 35B). These mixtures were prepared to compare to cathepsin D levels below, at, and above the highest known levels that were observed post-optimized IVT and had acceptable stability performance. The blended material was put on 25° C. stability observation in both the presence and absence of the inhibitor pepstatin A (FIG. 35A).
The Drug Substance Intermediate from two Lots was placed on stability observation at 25° C. in the presence (open triangle) and absence (closed triangle) of the inhibitor pepstatin A for 6 months (FIG. 36).
Samples were placed on 25° C. and 5° C. stability observation in the presence and absence of cathepsin D inhibitor. HMW formation was analyzed by SE-UPLC and NR1 formation was analyzed by CE-SDS.

cathepsin D [3] = assay: Impact of pH on NR-1 band formation in DSI incubated at 37° C.; type: physicochemical, Chinese hamster
Method: Testing of DSI samples from both facilities A and B for aflibercept production also show similar results.
The impact of pH is so significant that use of different buffers can also show a difference in the Y92L93 clipping observed during the production of aflibercept. For example, citric acid was employed at facility B to achieve a pH of 6.1 and sodium citrate was employed at facility A to achieve a pH of 6.2, despite other conditions remaining the same (i.e., incubation of DSI at 37° C. for 12 days, intermediate time point taken at 3rd and 6th day). While the difference in the pH is 0.1, the effect through cathepsin D based clipping is notable over time (data not shown).
All samples were incubated at 37° C. for 12 days, intermediate time point taken at 3rd and 6th day.
Target sequence in this assay (G3I4W7 65-408 limits assumed): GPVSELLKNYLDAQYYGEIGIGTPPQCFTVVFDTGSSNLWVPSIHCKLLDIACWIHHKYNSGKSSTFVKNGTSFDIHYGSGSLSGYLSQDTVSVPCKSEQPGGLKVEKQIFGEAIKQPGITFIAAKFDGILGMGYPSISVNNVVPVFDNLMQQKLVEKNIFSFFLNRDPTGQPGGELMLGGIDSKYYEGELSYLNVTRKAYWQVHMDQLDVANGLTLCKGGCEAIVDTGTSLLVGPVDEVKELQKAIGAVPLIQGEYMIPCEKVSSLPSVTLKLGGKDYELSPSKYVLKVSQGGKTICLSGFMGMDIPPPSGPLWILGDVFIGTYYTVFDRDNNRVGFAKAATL

[4] = Mass spectrometry analysis of Y92/L93 clipping in stability lots; type: physicochemical; settings: high concentration (114.3 mg/mL) lot vs low concentration lots, accelerated stability
Method: The analysis was performed by denaturing SEC-MS, which can provide (partial) liquid chromatography separation between the intact receptor domain and NR1 species (with Fc removed) for the successful detection of the low levels of NR1 species. The DS and DSI sample from lots A and B were analyzed using a modified mass analysis (samples 1-7 are representative of both DS and DSI samples from both the lots). The modification made is possible to differentiate the peaks of the receptor domain of aflibercept and truncated aflibercept.
Mass spectrometry analysis further confirmed (3.4×) higher levels of Y92/L93 clipping for the unexpected aflibercept high concentration lot when compared to […] clipping observed for low concentration lots (FIG. 18). Increased NR1 due to cathepsin D cleavage at Y92/L93 of aflibercept was linked to increased aggregate formation (FIG. 19 and FIG. 20).

cathepsin D [5] = assay: Octet HTX interaction analysis of aflibercept and cathepsin D; type: binding, Chinese hamster
Method: FIG. 31 […], wherein cathepsin D was immobilized to the biosensor, while VEGF-Trap was the analyte (A), according to an exemplary embodiment.
Interaction analysis was carried out using OCTET HTX sensorgram.
Since cathepsin D can “piggy back” onto aflibercept during purification of aflibercept, in order to reduce the interactions, use of surfactants was implemented.
Target sequence in this assay (G3I4W7 entry or part of it F138E): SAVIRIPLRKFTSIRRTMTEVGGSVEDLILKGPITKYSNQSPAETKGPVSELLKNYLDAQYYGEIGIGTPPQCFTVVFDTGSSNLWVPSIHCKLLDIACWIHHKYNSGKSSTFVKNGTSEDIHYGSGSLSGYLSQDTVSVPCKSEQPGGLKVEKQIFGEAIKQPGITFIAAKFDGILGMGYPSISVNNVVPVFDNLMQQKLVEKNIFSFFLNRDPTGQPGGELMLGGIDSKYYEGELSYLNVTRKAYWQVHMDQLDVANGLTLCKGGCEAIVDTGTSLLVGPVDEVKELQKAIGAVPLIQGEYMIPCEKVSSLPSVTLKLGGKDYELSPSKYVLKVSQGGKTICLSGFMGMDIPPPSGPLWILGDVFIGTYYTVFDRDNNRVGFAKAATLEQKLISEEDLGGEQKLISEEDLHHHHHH

cathepsin D [6] = assay: Cathepsin D spike-in into aflibercept DS, Y92L93 clipping / NR-1 band; type: physicochemical, Chinese hamster
Method: Production of the Y92L93 clipping was attempted using cathepsin D. To a sample of aflibercept DS, cathepsin D was added and incubated at 37° C. at pH 6.1. Different concentrations of cathepsin D were evaluated, including 1 ppm, 2 ppm, 5 ppm, and 10 ppm.
Since the failure of cathepsin D to affect the truncation could be due to reaction conditions, the experiment was repeated at a lower pH since cathepsin D needs to be activated by lower pH for conformational switch to mature cathepsin D. Cathepsin-D is an aspartic protease that depends critically on protonation of its active site Asp residue. Along with Asp-protonation, lower pH also leads to conformational switch in mature cathepsin-D. See Briozzo P et al. (1988). Cancer Research. 48 (13): 3688-92.
To test the DS samples with the presence of activated cathepsin D, to a sample from DS at t=0, 100 ppm acidified cathepsin D was added at 37° C. and incubated for 5 hours.
The clipping activity was also observed at neutral condition when acidified […]) was added.
Target sequence in this assay (as listed by the source): as the sequence (G3I4W7 65-408 limits assumed) above

[7] = Stability study of aflibercept lots at 5° C. and 25° C. (CE-SDS, SE-UPLC); type: physicochemical
Method: This study investigated how a residual HCP can piggy-back through the aflibercept DSI manufacturing process.
Drug substance intermediate (DSI) lots containing aflibercept at two different concentrations (40 mg/ml and 114.3 mg/ml) were evaluated at 5° C. and 25° C.
Using the modified SEC purification, the high concentration DSI lot was purified downstream using SEC. […] (as mentioned in Example 10).
An earlier cut in time for the eluting peak was implemented for the SEC step for the higher concentration DSI lots (FIG. 28) resulting in increased clearance and subsequently lower levels of cathepsin D at FDS (FIG. 29). […] Accelerated stability (25′C for 6 months) was investigated. The cumulative increase in HMW (FIG. 33A) and R1 (FIG. 33B) was represented over that 6 months by calculation of the slope. […] The DSI was analyzed for stability at 25° C. for 6 months. The rate of NR1 species was calculated from T0 to T6 months and plotted against the cathepsin D value obtained by ELISA (FIG. 34A), Activity Assay (FIG. 34B) and Mass Spectrometry (FIG. 34C).

[8] = DSI from two lots, 25° C., 6 months, pepstatin A present vs absent

**Q.** Which results are given for `CC(C)CC(=O)N[C@H](C(=O)N[C@H](C(=O)N[C@@H](CC(C)C)[C@@H](O)CC(=O)N[C@@H](C)C(=O)N[C@@H](CC(C)C)[C@@H](O)CC(=O)O)C(C)C)C(C)C` [pepstatin A] (Isovaleryl-VV[Sta]A[Sta]-OH)?
**A.** NR-1 band formation (cathepsin D [1]): NR-1 band increase stopped; Y/L clipping (cathepsin D [1]): Y/L clipping ceased; HMW formation (SE-UPLC) (cathepsin D [2]; [8]): reduced HMW formation; NR1 formation (CE-SDS) (cathepsin D [2]; [8]): reduced NR1 formation

**Q.** Which results are given for aflibercept?
**A.** NR-1 band formation (cathepsin D [3]; DSI sample, pH 4.5 compared to pH 6.3): significant NR-1 band; NR-1 band formation (cathepsin D [3]; pH 6.45): Effectively no NR-1 band is formed; 92Y93L clipping (cathepsin D [3]; pH increased to 6.45 by adding sodium citrate, 37° C. for 12 days): stopped the 92Y93L clipping; levels of Y92/L93 clipping, high concentration lot compared to low concentration lots [4]: 3.4 ×; KD of aflibercept-cathepsin D interaction, change (cathepsin D [5]; about 0.003% PS20 (polysorbate 20)): about 4 fold; binding to Cathepsin D (cathepsin D [5]; range of VEGF-Trap concentration): concentration dependent binding; interaction between aflibercept and cathepsin D (cathepsin D [5]; range of buffer pH): increased with reducing buffer pH; Y/L clipping (cathepsin D [6]; DS at t=0, 100 ppm acidified cathepsin D, 37° C., 5 hours): led to Y/L clipping of aflibercept; NR-1 band formation and Y/L cleavage (cathepsin D [6]; aflibercept DS, 0.5-20 ppm acidified cathepsin D, neutral condition, 7 days at 37° C.): correlation between spiked-in cathepsin D and NR-1 band formation, and Y/L cleavage; Y/L clipping (cathepsin D [6]; aflibercept DS, 10 ppm Cathepsin D spiked in, pH 6.1, 37° C., 8 days): Negligible; Y/L clipping (cathepsin D [6]; aflibercept DS, 100 ppm Cathepsin D spiked in, pH 6.1, 37° C., 8 days): < 1%; formation of NR1 (cathepsin D [2]; FDS, 5° C., inactive cathepsin D (inhibitor and/or low temperature), up to 18 months): no formation of NR1; rates of aggregation and fragmentation ([7]; 114.3 mg/mL formulated drug substance (FDS) lot, accelerated stability 25° C. for 6 months): increased rates of aggregation and fragmentation; fragmentation ([7]; 5° C. condition, through the 12-month time point): absence of fragmentation; LMW levels ([7]; FDS lots after modified SEC purification (earlier cut), 25° C. at 3 months): in line with comparators
